± gives the standard error. This sample holds only a part of the variants without activity.
B1: glmS ribozyme (parent)
chain: AUAAAAGCGCCAGAACUACAGAAAUGUAGUUGACGAGGAGGAGGUUUAUCGAAUUUUCGGCGGAUGCCUCCAAA

What was measured:
Conditions in all cases: with glucosamine-6-phosphate
[1] = variants of: B1; assay: self-cleavage kobs at 40 uM GlcN6P; higher = faster cleavage; RNA array
Procedure, shortened: (§1)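 Using a hybridised Cy3 probe at 37 °C, barcoded ribozyme variants transcribed in situ by E. coli RNA polymerase on sequenced MiSeq chips were monitored across tiles imaged over ~14 h. The flow contained glucosamine-6-phosphate from 40 μM to 10 mM in HEPES/KCl/Mg(OAc)2 buffer. Signals were normalised to baseline and to non-cleaving reference variants before per-tile medians were fit to one- or two-exponential decays to yield kobs. Weighted Michaelis–Menten fits across concentrations gave kcat and KM.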

[2] = variants of: B1; assay: self-cleavage kobs at 160 uM GlcN6P; higher = faster cleavage; RNA array
Procedure, shortened: as §1

[3] = variants of: B1; assay: self-cleavage kobs at 640 uM GlcN6P; higher = faster cleavage; RNA array
Procedure, shortened: as §1

[4] = variants of: B1; assay: self-cleavage kobs at 10000 uM GlcN6P; higher = faster cleavage; RNA array
Procedure, shortened: as §1

[5] = variants of: B1; assay: self-cleavage kobs at 2500 uM GlcN6P; higher = faster cleavage; RNA array
Procedure, shortened: as §1

| Variant | self-cleavage kobs at 40 uM GlcN6P [1] [s⁻¹] | self-cleavage kobs at 160 uM GlcN6P [2] [s⁻¹] | self-cleavage kobs at 640 uM GlcN6P [3] [s⁻¹] | self-cleavage kobs at 10000 uM GlcN6P [4] [s⁻¹] | self-cleavage kobs at 2500 uM GlcN6P [5] [s⁻¹] |
| --- | --- | --- | --- | --- | --- |
| AUAAAGGCGCCAGAACUACAGAAAUGUAGUUGACGAGGAGGAGGUUUAUGGAGUUUUUGGCGGAUGCCUCCAAA | 0.000224 ± 9.8e-05 | – | – | – | – |
| AUAAAAGCGCCAGAACUACAGAAAUGUAGUUGACGAGGAGGAAGUUUAUCGAAUUUUCCGCGGAUGCCUCCAAA | < 1e-05 | < 1e-05 | < 1e-05 | < 1e-05 | – |
| AUAAAAGCGCCAGAAAUACAGAAAUGUAGUAUACGAGGACAAGGUUUAUCGAAUUUUCGGCGGAUGUUUCCAAA | < 1e-05 | – | – | < 1e-05 | – |
| AUAAAAGCGCCAGAACUACAGAAAUGUAGUUGACGAUGAGGAGGUUUAUCGAAUUUUCUGCGGAUGCCUCCAAA | < 1e-05 | – | < 1e-05 | – | – |
| AUAAAAGCGUCAGAACUACAGAAAUGUAGUUGACGAGGAGGAGGUUUAUCGAAUUUUCGGUGGAUGCCUCCAAA | < 1e-05 | – | < 1e-05 | < 1e-05 | – |
| AUAAAAGCGCCAGAACUACAGAAAUGUAGCUGCCGAGGAGGAGGUUUAUCGAAUUUUCGGCGGAUGCCUCCAAA | < 1e-05 | < 1e-05 | < 1e-05 | – | – |
| AUAAAAGCGCCAGAACUACAGAAAUGUAGUAGACGAGGAGGAGGUUUAUCGAAUUUUCGGCGGCUGCCUCCAAA | < 1e-05 | – | – | 4.57e-05 ± 1e-05 | – |
| AUAAAAGCGCCAGAACUACAGAAAUGUAGUUGACGAGGAUGAGGUUUAUCGAAUUUUCGGCGGUUGCCUCCAAA | < 1e-05 | < 1e-05 | – | – | – |
| AUAAAAGCGUCAGAACUACAGAAAUGUAGUUGACGAUGAGGAGGAUUAUCGAAUUUUCGGCGGAUGCCUCCAAA | < 1e-05 | – | – | – | – |
| AUAAAAGGGCCAGAACUACAGAAAUGUAGUUGACGAGGAGGAGGUUUAUCGAAUUUUCGGUGGAUACCUUCAAA | < 1e-05 | – | – | – | – |
| AUAAAAGCGCCAGAACUACAGAAAUGUAGUUGAUGAGGAGGAGGUUUAUCGAAUUUUCGGCGGAUGCCACCAAA | 0.000116 ± 2.4e-05 | – | 0.00034 ± 0.00012 | – | – |
| AUAAAAGCGCCAAAACUACAGAAAUGUAGUUGACGACGAGGAGGUUUAUCGAAUUUUCGGCGGAUGCCUCCAAA | < 1e-05 | < 1e-05 | < 1e-05 | < 1e-05 | < 1e-05 |
| AUAAAAGCGCCAGAACUACAGAAAUGUAGUUGUUGAGGAGGAGGUUUAUCGAAUUUUCGCCGGAUGCUUCCAAA | < 1e-05 | – | – | – | < 1e-05 |
| AUAAAAGCGCCAGAACUACAGAAAUGUAGUUGACGAGGAGGAGGUUUAUCACGUUUUCGGCGGAUGCCUCCAAA | < 1e-05 | – | – | – | – |
| AUAAAAUCGCCAGAACUACAGAAAUGUAGUUUACGAGGAGGAGGUUUAUCGAAUUUUCGGCGGAUGCCUCCAAA | < 1e-05 | < 1e-05 | < 1e-05 | < 1e-05 | < 1e-05 |
| AUAAAAGCGCCAGAACUACAGAAAUGUAGUCGACGAGGAGGAGGUUUAUCCAAUUUUCGGCGGAUGCCUCCAAA | < 1e-05 | – | – | < 1e-05 | < 1e-05 |
| AUAAAAGCGUCAGAACUACAGAAAUGUAGUUGGCGAGGAGGAGGUUUAUCGAAUUUUCGGCGGAUGCCUCCAAA | < 1e-05 | < 1e-05 | < 1e-05 | < 1e-05 | – |
| AUAAAAGCGCCAGAACUACAGAAAUGUAGUUGACGAGGAGGAUGUUUAUCGAAUUUUUGGCGGAUGCCUCCAAA | < 1e-05 | < 1e-05 | < 1e-05 | < 1e-05 | – |
| AUAAAAGCGCCAGAACUACAGAAAUGUAGUUGACAAGGAGGAGGAUUAUCGAAUUUUCGGCGGAUGUCUCCAAA | < 1e-05 | – | – | < 1e-05 | – |
| AUAAAAGCGCCAGAACUACAGAAAUGUAGUUGACGAGGAGGAGGUUUCUCGAAUUUUUGGCGGAUGCCUCCAAA | < 1e-05 | < 1e-05 | < 1e-05 | < 1e-05 | – |
| AUAAAAGCGCCAGAACUACAGAAAUGUAGUUGAAGAGGAGGAGGUUUAUCGAAUUUUCGUCGGAUGCAUCCAAA | < 1e-05 | – | < 1e-05 | – | < 1e-05 |
| AUAAAAGCGACAGAACUACAGAAAUGUAGUUGACGAGGAUGAGGUUUAUCGAAUUUUCGGCGGAUGCCUCCAAA | < 1e-05 | < 1e-05 | < 1e-05 | < 1e-05 | – |
| AUAAAAGGGCCAGAACUACAGAAAUGUAGUUGACGAGGAGGAGGUUUAUCGAAUUUUCGGCGGACGCCUCCAAA | < 1e-05 | < 1e-05 | < 1e-05 | – | < 1e-05 |
| AUAAAAGCGCCAGAACUACAGAAAUGUAGUGGACGAGGAGGAGGUUUAUCGAAUUUUCGGAGGAUGCCUCCAAA | < 1e-05 | < 1e-05 | – | < 1e-05 | < 1e-05 |
| AUAAACGCGCCAGAACUACAGAAAUGUAGUUGACAAGGAGGAGGUUUAUCGAAUUUUCGGCGGAUGCCUCCAAA | < 1e-05 | < 1e-05 | < 1e-05 | < 1e-05 | < 1e-05 |
| AUAAAAGCGCCAGAACUACAGAAAUGUAGUUGAUGAGGAGGAGGUUUAUCUAACUUGCGGCGGAUGCCUCCAAA | < 1e-05 | – | – | – | < 1e-05 |

From the supplement of paper PMC7125110
